Measurements taken from patent US10578620B2, “Methods for detecting molecules in a sample” (The Francis Crick Institute Limited, priority 2013, dated 2020).

Tested on: pT308 (Akt phosphorylation)
Experiment: Two-site TSA-FRET for pT308 in FFPE human breast tumour, CIP specificity control
Protocol: TSA-FRET assay for quantification of pT308 was performed on 4-μm sections of two identical FFPE-fixed breast cancer tissue samples.
Following de-waxing and rehydration, sections were subjected to heat antigen retrieval by microwaving in TRIS-EDTA (pH 9.0) buffer, for 10 minutes at 800 W. Sections were then incubated in freshly prepared sodium borohydrate (1 mg/ml in PBS) buffer for 10 min at RT, followed by blocking with 1% BSA/PBS. Tissues sections were incubated with peroxidase suppressor (Thermo Scientific Pierce) for 15 min.
For the two-site TSAFRET assay, the first slide was incubated with mouse anti-panAkt (1:100), and the second slide with mouse anti-panAkt (1:100) and rabbit anti-pT308 (1:200) primary antibodies, for 16 hours at 4° C. The first slide was further immunolabeled with ORG488-conjugated anti-mouse Fab fragment secondary antibody (20 μg/ml). The second slide was immunolabeled with ORG488-conjugated anti-mouse Fab fragment (20 μg/ml) and HRP-conjugated anti-rabbit Fab fragment secondary antibody (10 μg/ml), which was detected by using Alexa-594-TSA assay. […]
The donor lifetimes of ORG488 were determined from at least 10 ROIs of the tumours, each performed in triplicate unless otherwise indicated. The FRET efficiency was calculated as described above (FIG. 4(a)-(c)).

B1: calf intestinal alkaline phosphatase (protein, UniProt P19111 20-506, looked up)
Intestinal-type alkaline …: LVPVEEEDPAFWNRQAAQALDVAKKLQPIQTAAKNVILFLGDGMGVPTVTATRILKGQMNGKLGPETPLAMDQFPYVALSKTYNVDRQVPDSAGTATAYLCGVKGNYRTIGVSAAARYNQCKTTRGNEVTSVMNRAKKAGKSVGVVTTTRVQHASPAGAYAHTVNRNWYSDADLPADAQMNGCQDIAAQLVNNMDIDVILGGGRKYMFPVGTPDPEYPDDASVNGVRKRKQNLVQAWQAKHQGAQYVWNRTALLQAADDSSVTHLMGLFEPADMKYNVQQDHTKDPTLQEMTEVALRVVSRNPRGFYLFVEGGRIDHGHHDDKAYMALTEAGMFDNAIAKANELTSELDTLILVTADHSHVFSFGGYTLRGTSIFGLAPSKALDSKSYTSILYGNGPGYALGGGSRPDVNDSTSEDPSYQQQAAVPQASETHGGEDVAVFARGPQAHLVHGVEEETFVAHIMAFAGCVEPYTDCNLPAPTTATSIPD
notes: phosphatase used as control to verify FRET signal is due to Akt phosphorylation
CIP 10 units/slide 30 min, untreated Ef=6.0
  FRET efficiency (Ef) of panAkt+pT308 in CIP-treated tumour samples: 1.5%
FIG. 4(c), p<0.0001
  change of FRET efficiency of the panAkt+pT308 signal in the CIP-treated condition: reduction
